Values of other authors as cited in patent publication US10500169B2, “Supression of IgE production by compounds derived from traditional chinese medicine” (Sean N. Parker Foundation, priority 2014, dated 2019).

System: peanut allergic patients

B1: TNX-901: anti-IgE antibody (antibody, chains of the INN, looked up, V domains shown)
VH: QVQLVQSGAEVKKPGASVKVSCKASGYTFSMYWLEWVRQAPGHGLEWVGEISPGTFTTNYNEKFKARATFTADTSTNTAYMELSSLRSEDTAVYYCARFSHFSGSNYDYFDYWGQGTLVTVSS
VL: DILLTQSPGTLSLSPGERATLSCRASQSIGTNIHWYQQKPGQAPRLLIKYASESISGIPSRFSGSGSGTDFTLTISRLEPEDFAMYYCQQSDSWPTTFGQGTKVEIK
For B1, which “median threshold of sensitivity to peanut after treatment” value (increased from 178 mg peanut protein) is on record?
Its value is 2.8 grams.

And the “symptoms following peanut challenge” value (vs placebo group)?
Its value is “significant decrease in symptoms”.
